{
  "source": "paper PMC11352577",
  "key": {"[1]": {"target": "CD64 (FcγRI) on human primary monocytes and monocyte-derived macrophages (human (endogenous in primary monocytes)) (UniProt P12314)", "sequence (P12314 16-374)": "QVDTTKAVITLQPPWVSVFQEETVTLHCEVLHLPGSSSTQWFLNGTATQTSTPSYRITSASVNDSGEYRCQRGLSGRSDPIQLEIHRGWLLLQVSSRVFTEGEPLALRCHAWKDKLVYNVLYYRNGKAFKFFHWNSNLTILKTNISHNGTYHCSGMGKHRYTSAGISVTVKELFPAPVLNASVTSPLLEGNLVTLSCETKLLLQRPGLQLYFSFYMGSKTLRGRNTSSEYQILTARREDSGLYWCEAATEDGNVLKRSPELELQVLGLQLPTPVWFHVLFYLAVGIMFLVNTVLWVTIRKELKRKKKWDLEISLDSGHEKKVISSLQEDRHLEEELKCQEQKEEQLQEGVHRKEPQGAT"}, "[2]": {"target": "human KIR3DL1 extracellular domains fused to mouse IgG2a Fc with Avi tag, biotinylated (human) (UniProt P43629)", "sequence (P43629 22-340)": "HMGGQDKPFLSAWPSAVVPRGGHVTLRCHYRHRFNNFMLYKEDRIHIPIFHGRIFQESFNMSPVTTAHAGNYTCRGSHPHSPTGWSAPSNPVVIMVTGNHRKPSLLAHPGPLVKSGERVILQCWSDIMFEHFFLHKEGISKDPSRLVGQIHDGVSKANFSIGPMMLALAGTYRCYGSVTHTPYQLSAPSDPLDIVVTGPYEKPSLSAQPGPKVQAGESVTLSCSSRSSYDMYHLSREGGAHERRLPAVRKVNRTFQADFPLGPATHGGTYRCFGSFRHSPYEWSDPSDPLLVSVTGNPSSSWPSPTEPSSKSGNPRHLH", "experiment": "SPR; Biacore T200; biotinylated KIR3DL1 immobilised; IOS-1002 as analyte; HBS-EP, 25 °C; steady-state fits, averaged"}, "[3]": {"target": "human KIR3DL1 extracellular domains fused to mouse IgG2a Fc with Avi tag, biotinylated (human) (UniProt P43629)", "experiment": "SPR; Biacore T200; biotinylated receptors immobilised on Series S CAP chip; IOS-1002 as analyte, 5 concentrations 6 to 0.375 uM; HBS-EP, 25 °C; 1:1 fit"}},
  "data": [
    {"substance": "IOS-1002 (HLA-B57^(A46E/V97R).B2m-IgG4_Fc) (from UniProt P61769 21-119) (Fc fusion)", "values": [
      {"measurement": "macrophage phagocytosis of H460 cells, dose response (EC50)", "setting": "[1]", "result": 0.00333, "unit": "µM"},
      {"measurement": "Kd", "setting": "[2]", "result": 7.48, "unit": "µM"},
      {"measurement": "Kd", "setting": "[3]", "result": 3.28, "unit": "µM"}
    ]}
  ]
}
